Bridge positions count the residues as written; N and C are the ends. Square brackets hold non-standard residues; d marks the D form. Ends that are not written are not given here. Oic = O=C(O)[C@@H]1C[C@@H]2CCCC[C@@H]2N1; Pen = CC(C)(S)[C@H](N)C(=O)O; Orn = NCCC[C@H](N)C(=O)O; Dap = NC[C@H](N)C(=O)O; Ahx = NCCCCCC(=O)O; Sar = CNCC(=O)O
T1: recombinant rat MASP1 active protease (amino acids 302-704, C-terminal His Tag) (rat, UniProt Q8CHN8 302-704)
T1 sequence: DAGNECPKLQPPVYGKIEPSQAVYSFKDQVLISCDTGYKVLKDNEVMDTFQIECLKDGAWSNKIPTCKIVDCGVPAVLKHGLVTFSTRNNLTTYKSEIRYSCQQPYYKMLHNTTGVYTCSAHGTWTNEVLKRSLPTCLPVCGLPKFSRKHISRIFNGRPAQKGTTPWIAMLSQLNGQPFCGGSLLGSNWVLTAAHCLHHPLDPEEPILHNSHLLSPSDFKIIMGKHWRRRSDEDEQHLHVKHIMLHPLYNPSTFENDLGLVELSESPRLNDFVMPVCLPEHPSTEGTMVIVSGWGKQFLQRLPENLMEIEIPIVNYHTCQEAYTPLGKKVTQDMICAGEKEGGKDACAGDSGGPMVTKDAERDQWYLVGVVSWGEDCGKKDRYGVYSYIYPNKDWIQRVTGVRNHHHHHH


How the values were obtained:
[1] = biological target: T1, recombinant rat MASP1 active protease …; assay: cell-based or functional assay
[2] = biological target: recombinant rat MASP2 active protease (amino acids 296-685, C-terminal His Tag) (rat, UniProt Q9JJS8 296-685); assay: cell-based or functional assay
recombinant rat MASP2 active protease (amino acids 296-685, C-terminal His Tag), sequence (Q9JJS8 other isoform, or with tags, fused parts or gaps limits assumed): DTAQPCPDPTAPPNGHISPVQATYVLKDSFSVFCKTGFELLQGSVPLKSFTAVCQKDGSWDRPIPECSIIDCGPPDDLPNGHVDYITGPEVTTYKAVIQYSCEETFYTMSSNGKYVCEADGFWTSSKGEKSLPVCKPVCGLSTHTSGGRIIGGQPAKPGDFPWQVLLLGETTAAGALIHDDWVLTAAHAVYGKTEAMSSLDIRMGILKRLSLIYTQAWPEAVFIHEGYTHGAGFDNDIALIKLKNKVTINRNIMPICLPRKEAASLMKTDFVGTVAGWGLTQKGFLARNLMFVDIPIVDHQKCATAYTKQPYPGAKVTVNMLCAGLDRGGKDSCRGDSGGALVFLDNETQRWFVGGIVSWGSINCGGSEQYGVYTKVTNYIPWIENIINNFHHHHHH

Binder | rat MASP1 IC50 [1] [nM] | rat MASP2 IC50 [2] [nM]
[Sar]ICSRSLP[Oic]I[Pen]IPD[Ahx]-OH (disulfide 3-11; N-terminus assumed; SMILES CC[C@H](C)[C@H](NC(=O)CNC)C(=O)N[C@H]1CSSC(C)(C)[C@@H](C(=O)N[C@H](C(=O)N2CCC[C@H]2C(=O)N[C@@H](CC(=O)O)C(=O)NCCCCCC(=O)O)[C@@H](C)CC)NC(=O)[C@H]([C@@H](C)CC)NC(=O)[C@@H]2C[C@@H]3CCCC[C@@H]3N2C(=O)[C@@H]2CCCN2C(=O)[C@H](CC(C)C)NC(=O)[C@H](CO)NC(=O)[C@H](CCCNC(=N)N)NC(=O)[C@H](CO)NC1=O) [Example 465: ((N-Me)G)-IC+SRSLP-(Oic)-I-(Pen)+IPD-(Ahx)-OH] | 72 | 140
[Sar]ICSRSLP[Oic]I[Pen]IPGD-OH (disulfide 3-11; N-terminus assumed; SMILES CC[C@H](C)[C@H](NC(=O)CNC)C(=O)N[C@H]1CSSC(C)(C)[C@@H](C(=O)N[C@H](C(=O)N2CCC[C@H]2C(=O)NCC(=O)N[C@@H](CC(=O)O)C(=O)O)[C@@H](C)CC)NC(=O)[C@H]([C@@H](C)CC)NC(=O)[C@@H]2C[C@@H]3CCCC[C@@H]3N2C(=O)[C@@H]2CCCN2C(=O)[C@H](CC(C)C)NC(=O)[C@H](CO)NC(=O)[C@H](CCCNC(=N)N)NC(=O)[C@H](CO)NC1=O) [Example 464: ((N-Me)G)-IC+SRSLP-(Oic)-I-(Pen)+IPGD-OH] | 94 | 120
[Sar]ICSRSLP[Oic]I[Pen]IPDD-OH (disulfide 3-11; N-terminus assumed; SMILES CC[C@H](C)[C@H](NC(=O)CNC)C(=O)N[C@H]1CSSC(C)(C)[C@@H](C(=O)N[C@H](C(=O)N2CCC[C@H]2C(=O)N[C@@H](CC(=O)O)C(=O)N[C@@H](CC(=O)O)C(=O)O)[C@@H](C)CC)NC(=O)[C@H]([C@@H](C)CC)NC(=O)[C@@H]2C[C@@H]3CCCC[C@@H]3N2C(=O)[C@@H]2CCCN2C(=O)[C@H](CC(C)C)NC(=O)[C@H](CO)NC(=O)[C@H](CCCNC(=N)N)NC(=O)[C@H](CO)NC1=O) [Example 466: ((N-Me)G)-IC+SRSLP-(Oic)-I-(Pen)+IPDD-OH] | 17.6 | 72

Results, then the binder that gave them:

rat MASP1 IC50 [1] [nM] | rat MASP2 IC50 [2] [nM] | Binder
120 | 34 | [Orn]ICSRSLP[Oic]I[Pen]IPD-OH (disulfide 3-11; N-terminus assumed; SMILES CC[C@H](C)[C@H](NC(=O)[C@@H](N)CCCN)C(=O)N[C@H]1CSSC(C)(C)[C@@H](C(=O)N[C@H](C(=O)N2CCC[C@H]2C(=O)N[C@@H](CC(=O)O)C(=O)O)[C@@H](C)CC)NC(=O)[C@H]([C@@H](C)CC)NC(=O)[C@@H]2C[C@@H]3CCCC[C@@H]3N2C(=O)[C@@H]2CCCN2C(=O)[C@H](CC(C)C)NC(=O)[C@H](CO)NC(=O)[C@H](CCCNC(=N)N)NC(=O)[C@H](CO)NC1=O) [Example 469: (Orn)-IC+SRSLP-(Oic)-I-(Pen)+IPD-OH]
78 | 71 | [Sar]ICSRSLP[Oic]I[Pen]IPD[PEG4‑CH2CO2H(15atoms)]-OH (disulfide 3-11) [Example 471: ((N-Me)G)-IC+SRSLP-(Oic)-I-(Pen)+IPD-(PEG4-CH2CO2H (15 atoms))-OH]
100 | 54 | [Sar]ICSRSLP[Oic]I[Pen]IP[PEG4‑CH2CO2H(15atoms)]-OH (disulfide 3-11) [Example 470: ((N-Me)G)-IC+SRSLP-(Oic)-I-(Pen)+IP-(PEG4-CH2CO2H (15 atoms))-OH]
170 | 70 | [Sar]ICSRSLP[Oic]I[Pen]IP[Dap]-OH (disulfide 3-11; also: Dap at position 14 joined through its 3-amino group) [Example 467: ((N-Me)G)-IC+SRSLP-(Oic)-I-(Pen)+IP-(*Dap)-OH]

— patent US20210246166A1 (Bayer, published 2021)
